This note sets out measurements from the DeepSol protein solubility set.

This data set in a line: soluble on expression in E. coli; label from the status in PepcDB or PDB records.
For “MGSDKIHHHHHHMRIILASSSPRRRQLMELLGIEFEVEKPDVEEEFLESPEETVRELSLRKAEWVFKKRKEEEILVIGSDTVVVLDGNILGKPESLEEAKGMLKKLSGKWHVVYTGVAFVSSETKDVIVSSTKVRFRELPESVIDYYVEKYRPLDKAGAYGIQDFAAVFVEKIEGDFFTVVGFPLGMVWQYLYEKGWWKVASKREDDKGGARVAFG”, the “soluble on expression in E. coli” value is reported as “not soluble”.
The result for “MKAAHIIDEARLGIMLNDLRLPTIKTLWPQFAEQADKEGWPAARFLSAIAEHELAERDRRRVERHLAEAHLPPGKTLDSFAFDAVPMVSKAQVMAMTAGDSWLAKGANILLFGPPGGGKSHLAAAIGLALIENGWRVLFTRTTDLVQKLQVARRELQLESAIAKLDKFDLLILDLEHHHHHH” reads “not soluble”.
Turning to “MGSDKIHHHHHHMLSKICMKILTVLDSYPPDLNGGAYFTHRLAKFLQAKGHEVLVICPSRSLKQGYTSYEGVNLYGVRSWPALGYKNFRVCWPFFIKKGILKAITDFNPDVVHLQGKFFLGGICYRACRKKGIPLMATNHFMPENFFHYTHLPKYFEKWFHRTTWNIVIDMLNHVKIVTTPTHTAANLLKEVHIQKEIHVVSCGVDLQKFQPKQNANLIRQRYKIPDKPILLYAGRLDKEKNLSIAIKAFYKARQSIDAHFVLTGRGAELQRLKKLVQTLNLTEHVTFTGYLSDAEYPLVYSLANCFVNPGTAELQSIVALEAIASGLPLLAAKAMALPELVKEGVNGYLFDPNDVETLSCYMVKILSDRTFSEQMGRESRKLSQEHDIKRTIEQYETLYQSMVS”, the “soluble on expression in E. coli” value is “not soluble”.
In the case of “MNTKFLGKTLVASALVLTTLGTGLHSSYLGLDTNKVVKTAKAEEKMTDGQLWKKVKDSLHDSDIILSNEYETINVTYLLSNGYSSSVSAPGNDDGGHLTQSIDFKGLKQIDLTKENVYDDFNKKLDAKNTWNSLTEKLKGLGLLQNGQKVSIYSSDSSSPVSGKVGEGVTSGGENTLTKRFINKITID” it was “not soluble”; in that of “MSDQIIARVSQSLAKEQSLESLVRQLLEMLEMVTDMESTYLTKVDVEARLQHIMFARNSQKMYIPENFTVSWDYSLCKRAIDENCFFSDEVPDRWGDCIAARNLGITTFLSTPIHLPDGSFYGTLCAASSEKRQWSERAEQVLQLFAGLIAQYIQKEALVEQLREANAALIAQSYTDSLTGLPNRRAIFENLTTLFSLARHLNHKIMIAFIDLDNFKLINDRFGHNSGDLFLIQVGERLNTLQQNGEVIGRLGGDEFLVVSLNNENADISSLRERIQQQIRGEYHLGDVDLYYPGASLGIVEVDPETTDADSALHAADIAMYQEKKHKQKTPFVAHPALHS”, “soluble”; in that of “MSNEEARSAGDLRNTGLSLRHDRTWDYELDRIVDEVERKDAEKVGLQFPEGLKRRGPAVADDLRARLDDTRIMLSGQPCYGACDLDTYLMRRTDVFVHFGHSPMKESDSIIYVPLFSNVDVEPIMQEARDELHDGDVGLVTTAQHMNQFEEMRTWLEERGYTVHTRRGDDRLTNEGQVLGCNYASADIDADQVLYVGGGKFHPLGLAMEHPEKNVVIADPVNNAVSIADAEQFLKERYASVHKAMDAEQWGVIFCTKIGQGRFDQAEEIVENNDNAYLITMDEVTPDRLMNFDMDAFVNTGCPRITTDDGPQFHKPMLTPGEYEIAVGNKPLEDLSFDTFHGTWLEHHHHHH”, “not soluble”.
On to “MSKSQYKMSKITYASGKMRPPSLIQKLNVYKPFLLIVDINSTNFALVGNGEILGHLFYRQNSPSYTQIKSRLVIYPKCCKLYSEDIAIPLHDWKIENLGAIKLLTKHNSLKTGTLHQIDKTMMLVYMAAFGEDSGVRSKISKPHGKTATWRNQHDLFMQ”, for which the “soluble on expression in E. coli” value was “not soluble”.
“GPGSMAETRKEEWSEPEVPGGRSEVVAGIKRRREKLELYQSASHKMKALMMNSAGIRSGLGANNELPVNPIWMKFPTRCVKPIHSVEEMREKLHYFSHSDDVMVVRYHQENCTACNALDKTFEFLCHQSADRYPNLKFYEVSKDATPQLTRNLVRYPQVKGFSGGHWTDLEFKPPAEFREELYSGVEREVTRRKREGQPVTALEAEEMYYSSAGPAMAQVLEESVVKFYCKAQARLHNYWKQVSVRRAWFFRKFVEPKVDDQVRDEWRLKSVFGEKLSYGPEPQMEEF”: the “soluble on expression in E. coli” value is listed as “not soluble”.
Consider “MEMMPNIEELRKMRKNLGISQKDLAKVTGVSQSYIARLEKGTINPTYSKIKAIYEYLTKSSEKASTMVLTCDRIMTRNVVVCRSDESILNALNIMRDKGFSQLPVVNEENKVIGTIAENNINDMLLKGMSIDSLRGLTVRRVMSDVLPQVDRNTPVNIIYQLLKYSNAVLVIEAGNLVGIITKADILKTVAGMI”, for which the “soluble on expression in E. coli” value was “not soluble”.
“MAHHHHHHMADQIYHKLINENIKMLCNDLLPNEKKDEKKKEYYNNMNINCSSKCEELCNNINDRLQKIKDIVHLRSTKANGILIETLNYIKEYIKEIEKYIQIFNKLIYEENRAYLFIEEIFNTLENQNQNIQKIYNICSKNIVITKNNNELILKNPKACSSLSYEFVNNLMNSGQQKNNNNNNNKKEQIVQQHNIENQGANYLN”: the “soluble on expression in E. coli” value is on record as “not soluble”.
Regarding “SLRETVFRNARVLDVARGAYDDGQSVVVRDGVIVAVATDAHRLAGADAREIDVAGRVLMPGLCDAHVHVTAFTPDFALLGRTAPSYVTVRAQDILQGMIGRGFTTVRDAGGADWGLAKALAEGAIVGPRLLYCGHALSQTGGHADMRGPGQHNLDQCLCCAGLGQVCDGVPEMRRACREEIRKGATHLKLMVSGGVASPTDRIDSTQFALDELRAACEEAEAANIPVMAHAYTGRAAVRALEAGVSSIEHGNLIDQAAIDTLLRLDRWLVPTLATYHALAAEGVEAGMPAELNKKVYTVLEAGTEALRMAAKAGVKLVYGSDLLGTMQRHQLTEFAIRAVVQDPIDILRAATTQAAALFRMEDRIGAVRAGYLADLLIVDGDVLHSVAPWSAPEETIKMVMKDGEILVSR”, the “soluble on expression in E. coli” value is on record as “soluble”.
With “MSLTQAQGAQQYVNINPPMPSDTPGKIEVLEFFAYTCPHCAAIEPMVEDWAKTAPQDVVLKQVPIAFNAGMKPLQQLYYTLQALERPDLHPKVFTAIHTERKRLFDKKAMGEWAASQGVDRAKFDSVFDSFSVQTQVQRASQLAEAAHIDGTPAFAVGGRYMTSPVLAGNDYAGALKVVDQLIVQSREGHHHHHH”, the “soluble on expression in E. coli” value is listed as “soluble”.
Turning to “MGSDKIHHHHHHMQAEAQHPKAEQYRTARLSRDARFDGLFFVGVFSTGIFCRPICPAVPAKEANVRYFDDALSAAQAGLRPCLRCRPDSAPGSNPWLGKQTSLNRAMSLIDAGVLCGPQAIPMTGLAERLGISERYLRQLFHDSLGTSPKQYALYQQLMFAKQLLHQTKMPITQVAYAAGFNSVRRFNEIFRQQLQLTPSEIRKATGQPSLPVQGLTLKLAYRPPYDWQHLRSFFAQRAVPEMEWLDEQSYGRSFVLGAAKGYFCAVHSEQEACFHVTIHLAEADSLSQLKGIISHIRRILDLDADMLTIGDKLQALGKALPQVSPGLRLPGVWSPFEAACRAILGQQVSVTQAIKLLGQLVADHGETISLNEKTVRLFPTPAALVDASLDGLKMPGIRKEAIRALAAFVMANPESEIDDWLQIKGIGPWTLDYVRLRGLSLPDVLLVGDLVVKQQLLVNLRPEPSSCDGEPAEDEDPKAAKKRAQAQYQALSQAVLRQVAPWGSYLTLQLWNRQ”, the “soluble on expression in E. coli” value is given as “not soluble”.
Regarding “MYFKMITSAPWVLYPEIGEDPSKKWIFREPKISDGDGIYSLIADCPPLDMNSSYCNFLQSTHFSKTSILVEHKGDIAGFISGYQKPDEQDVLFIWQVAVSPRFRGNGLAFRMLKELLEREALSEVKSVETTITEDNQASWALFKKLDAMNGNHGQVSTFLDEKAHFKGKHDTEFLYRIPLK”, the “soluble on expression in E. coli” value is reported as “not soluble”.
As for “YFQSMEAEDFECSSHCSELSWRQNEQRRQGLFCDITLCFGGAGGREFRAHRSVLAAATEYFTPLLSGQFSESRSGRVEMRKWSSEPGPEPDTVEAVIEYMYTGRIRVSTGSVHEVLELADRFLLIRLKEFCGEFLKKKLHLSNCVAIHSLAHMYTLSQLALKAADMIRRNFHKVIQDEEFYTLPFHLIRDWLSDLEITVDSEEVLFETVLKWVQRNAEERERYFEELFKLLRLSQMKPTYLTRHVKPERLVANNEVCVKLVADAVERHALRAENIQSGT”, the “soluble on expression in E. coli” value is recorded as “soluble”.
In the case of “MKNLAIFDLDNTLINTDSDHAWPQYLIKKGLVDAAETEAQNEKFYRDYQNGCLDIDAFLKFHLAPLARYSKEELAEFHREFMAEYIIPHISPMQRMLVQSHQMAGDETLVISSTNEFIITPVCHLFGITNIIGTQLETGSDGRYTGNYIGTPSLKEGKITRLNQWLAERGETLQSYGKTYFYSDSKNDLPLLRLVSEPVAVNPDAELEKEAKEKGWPVLNFK” it was “soluble”.
